Experimental data published in patent US20250011379A1 (VERTEX PHARMACEUTICALS, published 2025).

B1: Const. No. 94: hCFI-PD (wild type plasma-derived human CFI) (enzyme)
chain: KVTYTSQEDLVEKKCLAKKYTHLSCDKVFCQPWQRCIEGTCVCKLPYQCPKNGTAVCATNRRSFPTYCQQKSLECLHPGTKFLNNGTCTAEGKFSVSLKHGNTDSEGIVEVKLVDQDKTMFICKSSWSMREANVACLDLGFQQGADTQRRFKLSDLSINSTECLHVHCRGLETSLAECTFTKRRTMGYQDFADVVCYTQKADSPMDDFFQCVNGKYISQMKACDGINDCGDQSDELCCKACQGKGFHCKSGVCIPSQYQCNGEVDCITGEDEVGCAGFASVTQEETEILTADMDAERRRIKSLLPKLSCGVKNRMHIRRKRIVGGKRAQLGDLPWQVAIKDASGITCGGIYIGGCWILTAAHCLRASKTHRYQIWTTVVDWIHPDLKRIVIEYVDRIIFHENYNAGTYQNDIALIEMKKDGNKKDCELPRSIPACVPWSPYLFQPNDTCIVSGWGREKDNERVFSLQWGEVKLISNCSKFYGNRFYEKEMECAGTYDGSIDACKGDSGGPLVCMDANNVTYVWGVVSWGENCGKPEFPGVYTKVANYFDWISYHVGRPFISQYNV
B2: Const. No. 96: hCFI (wt hCFI, no signal sequence, no HSA) (enzyme)
chain: KVTYTSQEDLVEKKCLAKKYTHLSCDKVFCQPWQRCIEGTCVCKLPYQCPKNGTAVCATNRRSFPTYCQQKSLECLHPGTKFLNNGTCTAEGKFSVSLKHGNTDSEGIVEVKLVDQDKTMFICKSSWSMREANVACLDLGFQQGADTQRRFKLSDLSINSTECLHVHCRGLETSLAECTFTKRRTMGYQDFADVVCYTQKADSPMDDFFQCVNGKYISQMKACDGINDCGDQSDELCCKACQGKGFHCKSGVCIPSQYQCNGEVDCITGEDEVGCAGFASVTQEETEILTADMDAERRRIKSLLPKLSCGVKNRMHIRRKRIVGGKRAQLGDLPWQVAIKDASGITCGGIYIGGCWILTAAHCLRASKTHRYQIWTTVVDWIHPDLKRIVIEYVDRIIFHENYNAGTYQNDIALIEMKKDGNKKDCELPRSIPACVPWSPYLFQPNDTCIVSGWGREKDNERVFSLQWGEVKLISNCSKFYGNRFYEKEMECAGTYDGSIDACKGDSGGPLVCMDANNVTYVWGVVSWGENCGKPEFPGVYTKVANYFDWISYHVGRPFISQYNV

Molecular target: soluble human C3b (human, UniProt P01024 23-1663, limits assumed)
Sequence (P01024 23-1663 limits assumed): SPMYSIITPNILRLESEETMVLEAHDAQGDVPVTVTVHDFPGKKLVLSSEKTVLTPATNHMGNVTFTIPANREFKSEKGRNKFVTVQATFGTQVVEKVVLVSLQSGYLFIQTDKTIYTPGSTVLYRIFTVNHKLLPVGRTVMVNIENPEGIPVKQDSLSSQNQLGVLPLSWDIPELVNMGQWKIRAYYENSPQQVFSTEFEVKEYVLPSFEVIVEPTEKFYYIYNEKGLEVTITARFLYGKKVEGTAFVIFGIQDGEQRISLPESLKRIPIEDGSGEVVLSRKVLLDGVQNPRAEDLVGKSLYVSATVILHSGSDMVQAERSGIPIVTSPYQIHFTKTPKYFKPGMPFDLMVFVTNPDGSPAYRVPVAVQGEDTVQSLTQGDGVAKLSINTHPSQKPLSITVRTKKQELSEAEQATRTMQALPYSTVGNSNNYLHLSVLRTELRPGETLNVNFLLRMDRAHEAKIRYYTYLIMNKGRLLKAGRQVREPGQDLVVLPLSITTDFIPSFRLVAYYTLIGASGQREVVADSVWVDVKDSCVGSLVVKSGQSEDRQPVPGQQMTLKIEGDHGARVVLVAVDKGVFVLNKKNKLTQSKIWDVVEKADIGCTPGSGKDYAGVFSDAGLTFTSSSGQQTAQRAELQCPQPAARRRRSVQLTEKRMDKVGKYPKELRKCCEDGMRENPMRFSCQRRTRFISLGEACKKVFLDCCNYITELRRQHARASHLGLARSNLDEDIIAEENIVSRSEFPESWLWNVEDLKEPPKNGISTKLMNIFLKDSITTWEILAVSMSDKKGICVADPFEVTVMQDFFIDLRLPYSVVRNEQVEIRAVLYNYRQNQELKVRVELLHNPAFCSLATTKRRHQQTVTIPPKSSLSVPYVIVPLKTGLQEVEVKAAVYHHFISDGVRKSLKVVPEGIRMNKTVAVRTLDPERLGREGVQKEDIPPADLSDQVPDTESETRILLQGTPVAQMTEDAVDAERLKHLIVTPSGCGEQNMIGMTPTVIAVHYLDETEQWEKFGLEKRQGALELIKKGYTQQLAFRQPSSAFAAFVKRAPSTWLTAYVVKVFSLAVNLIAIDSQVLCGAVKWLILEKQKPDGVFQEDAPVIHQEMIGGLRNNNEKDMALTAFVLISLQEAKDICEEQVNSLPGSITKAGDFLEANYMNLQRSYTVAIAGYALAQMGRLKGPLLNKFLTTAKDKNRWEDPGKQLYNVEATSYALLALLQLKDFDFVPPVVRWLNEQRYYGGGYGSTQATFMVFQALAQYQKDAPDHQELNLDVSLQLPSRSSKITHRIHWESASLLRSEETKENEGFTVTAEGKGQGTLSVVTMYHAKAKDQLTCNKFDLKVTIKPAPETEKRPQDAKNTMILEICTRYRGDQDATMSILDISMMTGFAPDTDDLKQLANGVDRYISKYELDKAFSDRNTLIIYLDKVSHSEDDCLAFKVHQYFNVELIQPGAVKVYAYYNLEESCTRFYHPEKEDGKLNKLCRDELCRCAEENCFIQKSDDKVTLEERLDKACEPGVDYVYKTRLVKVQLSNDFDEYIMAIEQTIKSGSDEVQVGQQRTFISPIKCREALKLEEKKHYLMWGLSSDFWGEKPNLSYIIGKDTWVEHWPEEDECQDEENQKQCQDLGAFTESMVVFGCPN
Experiment: cell-based or functional assay

Binder | iC3b EC50 [nM]
B1 | 50.1
B2 | 62.4
